These results are taken from publication PMC3795721, “Screening for Protein-DNA Interactions by Automatable DNA-Protein Interaction ELISA”.

In data set [1] the target is T1, AtbZIP63 (Arabidopsis thaliana, UniProt B9DGI8 1-314).
T1 sequence: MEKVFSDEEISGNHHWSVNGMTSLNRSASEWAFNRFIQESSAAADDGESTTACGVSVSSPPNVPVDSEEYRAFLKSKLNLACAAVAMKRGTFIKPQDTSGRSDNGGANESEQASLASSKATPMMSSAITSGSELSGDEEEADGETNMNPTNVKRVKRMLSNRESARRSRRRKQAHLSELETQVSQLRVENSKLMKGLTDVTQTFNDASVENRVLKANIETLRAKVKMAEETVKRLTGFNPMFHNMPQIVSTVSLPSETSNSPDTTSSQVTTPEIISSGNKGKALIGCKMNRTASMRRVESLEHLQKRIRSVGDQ
Nature of the data set: DPI-ELISA; DPI-ELISA, streptavidin 384-well plate, 1-2 pmol biotinylated dsDNA per well, crude native E. coli extract, anti-His detection; buffer as in Brand et al. [46],; high values mean tight binding. The following applies: tags: C-terminal His (pET-DEST42); chain copies: 2; label: 5' biotin on forward strand.

For data set [2], the target named is WRKY33 cDBD (Arabidopsis thaliana, UniProt Q8S8P5 345-449). Described as above. To be noted: tags: C-terminal His (pET-DEST42); label: 5' biotin on forward strand.
Chain of WRKY33 cDBD (Q8S8P5 other isoform, or with tags, fused parts or gaps): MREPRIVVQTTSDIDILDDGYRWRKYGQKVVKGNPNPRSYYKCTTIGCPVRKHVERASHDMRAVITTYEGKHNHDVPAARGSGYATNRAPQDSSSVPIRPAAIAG
For data set [3], the target named is T2, AtTIFY1 (Arabidopsis thaliana, UniProt Q9LRH6 1-309).
T2 sequence: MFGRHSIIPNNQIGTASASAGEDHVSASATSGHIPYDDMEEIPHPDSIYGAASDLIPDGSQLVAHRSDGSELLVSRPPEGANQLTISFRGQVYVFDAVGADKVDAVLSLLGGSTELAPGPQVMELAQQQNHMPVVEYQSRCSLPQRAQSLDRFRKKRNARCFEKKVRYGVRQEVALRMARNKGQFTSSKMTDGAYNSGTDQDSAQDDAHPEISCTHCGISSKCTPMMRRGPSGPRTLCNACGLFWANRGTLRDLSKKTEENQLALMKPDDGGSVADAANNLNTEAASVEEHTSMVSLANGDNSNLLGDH
Described as above. The following applies: tags: C-terminal His (pET-DEST42); label: 5' biotin on forward strand.

In data set [4] the target is T2, AtTIFY1. The experiment in a line: DPI-ELISA; highest affinity; DPI-ELISA on streptavidin plates with biotinylated dsDNA (1 pmol in Figure S1, 2 pmol in Figure 1 legend) and crude E. coli extract; anti-His detection; buffer, pH and temperature not given (ref 46). To be noted: protein: recombinant; tags: C-terminal His (pET-DEST42); label: 5' biotin on forward strand; blunt.

B1: 239 (dsDNA)
DNA 1: AAAAAAGTCGTTACACGTATGCGTGCAAAA
DNA 2: TTTTGCACGCATACGTGTAACGACTTTTTT
Turning to B1, the binding signal was 2.62 relative normalized absorbance in data set [1] and 2.32 relative normalized absorbance in data set [2].

B2: 334 (dsDNA)
DNA 1: AAAAAATTCCGGCTTGACGCTGCATAAAAA
DNA 2: TTTTTATGCAGCGTCAAGCCGGAATTTTTT
For B2, the binding signal in data set [3] was 1.43 relative normalized absorbance.

B3: 201 (dsDNA)
DNA 1: AAAAAAGATCTAGGCCTTGGGACTCAAAAA
DNA 2: TTTTTGAGTCCCAAGGCCTAGATCTTTTTT
With B3, in data set [3], the binding signal is 1.81 relative normalized absorbance.

B4: 238 (dsDNA)
DNA 1: AAAAAATCGGGGATCCGGGCGGTTGCAAAA
DNA 2: TTTTGCAACCGCCCGGATCCCCGATTTTTT
On to B4, for which, in data set [3], the binding signal was 1.69 relative normalized absorbance.

B5: 300 (dsDNA)
DNA 1: AAAAAACTCGCGCTTGCATCTGTGCGAAAA
DNA 2: TTTTCGCACAGATGCAAGCGCGAGTTTTTT
In the case of B5, the binding signal in data set [3] is 1.45 relative normalized absorbance.

B6: 32 (dsDNA)
DNA 1: AAAAAACCTACGATGGTTCTGATCTTAAAA
DNA 2: TTTTAAGATCAGAACCATCGTAGGTTTTTT
As for B6, the binding signal in data set [3] was 1.8 relative normalized absorbance.

B7: 314 (dsDNA)
DNA 1: AAAAAATTGGCACACATGATCTCGGGAAAA
DNA 2: TTTTCCCGAGATCATGTGTGCCAATTTTTT
For the molecule B7, the binding signal in data set [3] was 1.5 relative normalized absorbance.

B8: 160 (dsDNA)
DNA 1: AAAAAACGGTCGCGATCGTTAATGATAAAA
DNA 2: TTTTATCATTAACGATCGCGACCGTTTTTT
With B8, the binding signal is 2.05 relative normalized absorbance in data set [2] and 1.47 relative normalized absorbance in data set [3].

B9: 15 (dsDNA)
DNA 1: AAAAAAATCCGATCGATGCATATATAAAA
DNA 2: TTTTATATATGCATCGATCGGATTTTTTT
B9: in data set [3], the binding signal is 1.63 relative normalized absorbance.

B10: 204 (dsDNA)
DNA 1: AAAAAAGGAAGTACTGACGATCTGGAAAAA
DNA 2: TTTTTCCAGATCGTCAGTACTTCCTTTTTT
Turning to B10, the binding signal in data set [3] is 1.52 relative normalized absorbance.

B11: 282 (dsDNA)
DNA 1: AAAAAACAGGCCGATTCCGATCCCGGAAAA
DNA 2: TTTTCCGGGATCGGAATCGGCCTGTTTTTT
For the molecule B11, in data set [3], the binding signal is 1.83 relative normalized absorbance.

B12: 290 (dsDNA)
DNA 1: AAAAAATGTCTAGACTCGGACATTCGAAAA
DNA 2: TTTTCGAATGTCCGAGTCTAGACATTTTTT
B12: the binding signal in data set [3] is 1.52 relative normalized absorbance.

B13: 246 (dsDNA)
DNA 1: AAAAAACTGACCGTCAGCGCCCACGCAAAA
DNA 2: TTTTGCGTGGGCGCTGACGGTCAGTTTTTT
For the molecule B13, the binding signal was 1.96 relative normalized absorbance in data set [1] and 2.09 relative normalized absorbance in data set [2].

B14: 233 (dsDNA)
DNA 1: AAAAAAGGTCCAGTCCACGTCATCAGAAAA
DNA 2: TTTTCTGATGACGTGGACTGGACCTTTTTT
As to B14, the binding signal in data set [1] was 2.57 relative normalized absorbance; in data set [2] it was 2.34 relative normalized absorbance.

B15: probe 38 version with palindromic TGATCA (dsDNA)
DNA 1: AAAAAATTTATACTTGATCATGGCTTAAAA
DNA 2: TTTTAAGCCATGATCAAGTATAAATTTTTT
For B15, the binding result in data set [4] is listed as “binds”.

B16: 234 (dsDNA)
DNA 1: AAAAAAGGTCTGGACGATCACCGGGAAAAA
DNA 2: TTTTTCCCGGTGATCGTCCAGACCTTTTTT
On to B16, for which, in data set [3], the binding signal is 1.7 relative normalized absorbance.

B17: 227 (dsDNA)
DNA 1: AAAAAAGGCTCCGGCCCCCAATCGCAAAAA
DNA 2: TTTTTGCGATTGGGGGCCGGAGCCTTTTTT
Turning to B17, the binding signal in data set [3] is 1.44 relative normalized absorbance.

B18: 130 (dsDNA)
DNA 1: AAAAAACGCAACTCCGGATGTGGGGTAAAA
DNA 2: TTTTACCCCACATCCGGAGTTGCGTTTTTT
Take B18: the binding signal in data set [3] is 1.54 relative normalized absorbance.

B19: 202 (dsDNA)
DNA 1: AAAAAAGATTGACTCGTCTTACTCGAAAAA
DNA 2: TTTTTCGAGTAAGACGAGTCAATCTTTTTT
As for B19, the binding signal in data set [1] is 2.68 relative normalized absorbance; in data set [2], 2.3 relative normalized absorbance.

B20: 305 (dsDNA)
DNA 1: AAAAAACGCTTTCAGTTTTGATCTTAAAAA
DNA 2: TTTTTAAGATCAAAACTGAAAGCGTTTTTT
Take B20: the binding signal in data set [3] was 1.55 relative normalized absorbance.
